Experimental data: the supplement of paper PMC10724198
± gives the standard deviation of the averaged measurements.

Test system: Saccharomyces cerevisiae
Test: protein stability index of tFT-peptide fusion (C-terminal peptide) (PSI (0-1 scale)); higher = more stable (slower turnover)
Details: temperature: 30 C
Protocol: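 MPS profiling in S. cerevisiae of the yeast C-terminome library: the last 12 aa of each annotated ORF are fused to the C-terminus of a sfGFP-mCherry timer, after a GGGS linker. Cells are FACS-sorted into 8 mCherry/sfGFP bins and deep-sequenced. PSI runs from 0 (unstable) to 1 (stable); wild type and das1Δ backgrounds, two technical replicates each.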

[1] = genetic background: das1 deletion

ITFIASLMTLNK [SAC6 C-terminal 12 aa]
protein stability index [1]: 0.66916 ± 0.0005
protein stability index (genetic background: wild type): 0.679 ± 0.021

RIAAGDGDDDDE [QCR9 C-terminal 12 aa]
protein stability index [1]: 0.7068 ± 0.0027
protein stability index (genetic background: wild type): 0.674 ± 0.041

AITLAWLAHALT [YHL037C C-terminal 12 aa]
protein stability index [1]: 0.4375 ± 0.0012
protein stability index (genetic background: wild type): 0.39 ± 0.011

LLEGIIIKLFLY [YDL011C C-terminal 12 aa]
protein stability index [1]: 0.423 ± 0.0049
protein stability index (genetic background: wild type): 0.174 ± 0.0066

ADESKKEITTGR [MPC2 C-terminal 12 aa]
protein stability index [1]: 0.714 ± 0.022
protein stability index (genetic background: wild type): 0.653 ± 0.018

KKRKFGKVRIKN [NEJ1 C-terminal 12 aa]
protein stability index [1]: 0.706 ± 0.047
protein stability index (genetic background: wild type): 0.698 ± 0.0074

TKVYFLGRDSSV [NDE2 C-terminal 12 aa]
protein stability index [1]: 0.688 ± 0.013
protein stability index (genetic background: wild type): 0.6764 ± 0.0011

ALNRSAIIKDDK [DDP1 C-terminal 12 aa]
protein stability index [1]: 0.703 ± 0.0071
protein stability index (genetic background: wild type): 0.708 ± 0.01

HFANFKRTIEEK [AMD1 C-terminal 12 aa]
protein stability index [1]: 0.729 ± 0.049
protein stability index (genetic background: wild type): 0.6925 ± 0.0065

EVSQYAAFFQDD [CTM1 C-terminal 12 aa]
protein stability index [1]: 0.719 ± 0.02
protein stability index (genetic background: wild type): 0.712 ± 0.028

ENISSPLGKKSR [PSY4 C-terminal 12 aa]
protein stability index [1]: 0.691 ± 0.0098
protein stability index (genetic background: wild type): 0.706 ± 0.0047

VFDENMYSKYSS [BRO1 C-terminal 12 aa]
protein stability index [1]: 0.712 ± 0.012
protein stability index (genetic background: wild type): 0.712 ± 0.032

SWINLDFNDGDE [MDM12 C-terminal 12 aa]
protein stability index [1]: 0.6957 ± 0.004
protein stability index (genetic background: wild type): 0.67488 ± 0.00028

RKSKKDTDSDSD [BMT5 C-terminal 12 aa]
protein stability index [1]: 0.7 ± 0.023
protein stability index (genetic background: wild type): 0.695 ± 0.055

LFCNYITETVEN [ASH1 C-terminal 12 aa]
protein stability index [1]: 0.694 ± 0.0018
protein stability index (genetic background: wild type): 0.645 ± 0.095

MFTSDKKTEQTT [URC2 C-terminal 12 aa]
protein stability index [1]: 0.708 ± 0.0052
protein stability index (genetic background: wild type): 0.695 ± 0.011

LIGGVGLSIWKK [RTT10 C-terminal 12 aa]
protein stability index [1]: 0.7069 ± 0.0038
protein stability index (genetic background: wild type): 0.668 ± 0.032

GHNWLIFTRRRL [CBT1 C-terminal 12 aa]
protein stability index [1]: 0.718 ± 0.012
protein stability index (genetic background: wild type): 0.707 ± 0.0083

LLNDIKRRNMGR [MET28 C-terminal 12 aa]
protein stability index [1]: 0.6834 ± 0.0045
protein stability index (genetic background: wild type): 0.723 ± 0.12

NTHDLHLRPGTY [YBL005W-A C-terminal 12 aa]
protein stability index [1]: 0.6794 ± 0.00083
protein stability index (genetic background: wild type): 0.708 ± 0.013

TFEELWNGVEGI [ARH1 C-terminal 12 aa]
protein stability index [1]: 0.722 ± 0.016
protein stability index (genetic background: wild type): 0.682 ± 0.038

EDRQAFFDSLKE [YGK1 C-terminal 12 aa]
protein stability index [1]: 0.724 ± 0.036
protein stability index (genetic background: wild type): 0.651 ± 0.025

KWFRENDGKKAN [TSC10 C-terminal 12 aa]
protein stability index [1]: 0.7006 ± 0.0047
protein stability index (genetic background: wild type): 0.6772 ± 0.0044

DIISFTSTLHGG [URM1 C-terminal 12 aa]
protein stability index [1]: 0.727 ± 0.015
protein stability index (genetic background: wild type): 0.705 ± 0.059

LYLLLARVFEIW [SNF11 C-terminal 12 aa]
protein stability index [1]: 0.567 ± 0.059
protein stability index (genetic background: wild type): 0.5614 ± 0.0025

EVVKRYLKMRQD [PUP3 C-terminal 12 aa]
protein stability index [1]: 0.7 ± 0.011
protein stability index (genetic background: wild type): 0.5999 ± 0.0049

IYKCEDERIDYF [KOG1 C-terminal 12 aa]
protein stability index [1]: 0.6594 ± 0.00099
protein stability index (genetic background: wild type): 0.726 ± 0.015

KKIIKKKDFYHR [YOR011W-A C-terminal 12 aa]
protein stability index [1]: 0.728 ± 0.015
protein stability index (genetic background: wild type): 0.706 ± 0.04

DKPLYKRMFSTK [HXT6 C-terminal 12 aa]
protein stability index [1]: 0.694 ± 0.022
protein stability index (genetic background: wild type): 0.7134 ± 0.0047

KIITLDLSNYAE [SMC1 C-terminal 12 aa]
protein stability index [1]: 0.709 ± 0.057
protein stability index (genetic background: wild type): 0.672 ± 0.049

GVAKSMGIKVVP [MRPL19 C-terminal 12 aa]
protein stability index [1]: 0.652 ± 0.0064
protein stability index (genetic background: wild type): 0.686 ± 0.044

EFEKAQEINKKA [YRB1 C-terminal 12 aa]
protein stability index [1]: 0.712 ± 0.017
protein stability index (genetic background: wild type): 0.694 ± 0.02

LKFLEEKFPHDK [AIM17 C-terminal 12 aa]
protein stability index [1]: 0.708 ± 0.02
protein stability index (genetic background: wild type): 0.691 ± 0.03

IELIQNMNKESF [YOR131C C-terminal 12 aa]
protein stability index [1]: 0.696 ± 0.03
protein stability index (genetic background: wild type): 0.692 ± 0.015

ANDWKTYENMKK [SIP18 C-terminal 12 aa]
protein stability index [1]: 0.7042 ± 0.0029
protein stability index (genetic background: wild type): 0.706 ± 0.041

GSEHSDPFSTFY [DBF20 C-terminal 12 aa]
protein stability index [1]: 0.748 ± 0.0093
protein stability index (genetic background: wild type): 0.7245 ± 0.0011

GPCVDALLSLSE [VPS9 C-terminal 12 aa]
protein stability index [1]: 0.74 ± 0.0083
protein stability index (genetic background: wild type): 0.716 ± 0.048

REWFDIELNFSK [PMT4 C-terminal 12 aa]
protein stability index [1]: 0.7467 ± 0.0068
protein stability index (genetic background: wild type): 0.73 ± 0.024

KVTFINIEINYR [YGR064W C-terminal 12 aa]
protein stability index [1]: 0.57 ± 0.02
protein stability index (genetic background: wild type): 0.591 ± 0.03

YVIVFFVYDSLL [YOL046C C-terminal 12 aa]
protein stability index [1]: 0.238 ± 0.0075
protein stability index (genetic background: wild type): 0.283 ± 0.015

FPFELRREQTEG [PET130 C-terminal 12 aa]
protein stability index [1]: 0.6976 ± 0.0057
protein stability index (genetic background: wild type): 0.755 ± 0.061
